Results on 16 sequences are retold here after the nanobody polyreactivity screen of Harvey et al. (2022).

The nature of the series: yeast display, Sf9 membrane polyspecificity reagent, FACS + sequencing; frameworks hold sequencing errors. The procedure, abridged:
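Nanobodies from a synthetic yeast display library (Saccharomyces cerevisiae BJ5465), induced 36–48 hours with galactose, were stained 1 hour at 4 °C with 10% biotinylated, detergent-solubilized Sf9 membrane reagent, enriched on streptavidin microbeads, then FACS-sorted. Anti-HA (expression) and streptavidin (reagent binding) fluorescence set low and high (top ~1%) gates. Polyreactivity labels come from the gate of origin. Genes were colony-PCR amplified, MiSeq 2 × 250 sequenced and filtered by CDR length.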
Take “QVQLVESGGGLVQAGGSLRLSCAASGRIFRRYAMGWYRQAPGKERELVAAISSGGSTNYADSVKGRFTLSRDNAKNTVYLQMNSLKPEDTAVYYCAARRTATTSRAYYYWGQGTQVTVSS”: the “polyreactivity (PSR sort gate)” value is listed as “high polyreactivity”.

For “QVQLVESGGGLVQAGGSLRLSCAASGFTFGWYAMGWYRQAPGKERELVATISWSGSSTYYADSVKGRFTISRDNAKNTVYLQMNSLKPEDTAVYYCNAVYGRFVVLRYDYWGQGTQVTVSS”, the “polyreactivity (PSR sort gate)” value was “high polyreactivity”.

As for “QVQLVESGGGLVQAGGSLRLSCAATGRIVRGNAMGWYRQAPGKERELVAAISTRGGRTYYADSVKGRFTISRDNAKNTVYLQMTSLKPQDTAVYYCNKGDSASSLDYWGQGTQVTVSS”, the “polyreactivity (PSR sort gate)” value is on record as “high polyreactivity”.

“QVQLVESGGGLVQAGGSLRLSCAASGRIFYDNTMGWYRQAPGKERELFAAITWRVGNTNYADSVKGRFTISRDNAKNTVYLQMNSLNPEDTAVYYCAVRLLADDGYPAVVGYDYWGQGTQVTVSS”: the “polyreactivity (PSR sort gate)” value is on record as “low polyreactivity”.

Turning to “QVQLVESGGGLVQAGGSLRLICAASGTIFITNAMGWYRPAPGKERELVAAISGRGGSTYYADSVKGRFTISRDNAKNTVYLQMNSLKPEDTAVYYCNAYSYRVSGYDYWGQGTQVTVSS”, the “polyreactivity (PSR sort gate)” value was “high polyreactivity”.

Regarding “QVQLVESGGGLVQAGGSLRLSCAASGRIFVPNPMGWYRQAPGKDRELVAAITNGGRTKYADSVKGRFTISRDNAKNTVYLQMNSLKPEDTAVYYCAADLYRWFYYWGQGTQVTVSS”, the “polyreactivity (PSR sort gate)” value is “high polyreactivity”.

As to “QVQLVESGGGLVQAGGSLRLSCAASGSTFVFYAMGWYRLAPGKDRELVAINSGGSTYYADSVKGRFTISRDNAKNTVYLQMNSLKPEDTAVYFCAKDPLRVWRFDYWGQGTQVTVSS”, the “polyreactivity (PSR sort gate)” value is “low polyreactivity”.

On to “QVQLVESGGGLVQAGGSLRLTCAASGRIFVYNAMGWYRQAPGKESEFVATITSSGGRTYYADSVKGRFTISRDNAKNTVYLQMNSLKTEDTAVYDCAASPHNYGRNTVYRYKYWGQGTQVTVSS”, for which the “polyreactivity (PSR sort gate)” value is reported as “high polyreactivity”.

“QVQIVESGGGLVQAGGSHRLSCAASGSTFVYNAMGWYRQAPGIQRELVAAITVIGGRTYYADSVKGRFTISRDNAKNTVYLQMNSLKPEDTSVYYCNGTWAYRGHGYWGQGTEVTVSS”: the “polyreactivity (PSR sort gate)” value is reported as “low polyreactivity”.

On to “QVQLVESGGGLVQAGGSLRLSCAASGSIFGYYAMGWYRQAPGKERELVAAISGNGGNTYYADSVKGRFTISRDNAKNTVYLQMNSLKPEDTAVYYCNRAPGYRGGRYDYWGQGTQVTVSS”, for which the “polyreactivity (PSR sort gate)” value is on record as “high polyreactivity”.

On to “QVQLVESGGGLVQAGGSLRVSCAASGRIFVQYDMGWYRQAPGKERELVAAINDSGDITYYADSVKGRFTISRDNAKNTVYLQMTSLKPEDTAVYSCAASAAYYGFYKSVTYDYWGQGTQVSVSS”, for which the “polyreactivity (PSR sort gate)” value is “low polyreactivity”.

Take “QVQLVESGGGLVQAGGSLRLSCAASGSTFDTYAKGWYRQAPGQERELVAAISYRGGNTYYADSVKGRFTISRDNAKNTVYLQMNSLKPEDTAVYYCNAGVSIGRSRRYDYWGQGTHVTVSS”: the “polyreactivity (PSR sort gate)” value was “low polyreactivity”.

“QVQLVESGGGLVQAGGSLRLSCAASGFTFSSYAMGWYRQAPGKERELVAAITQSGGRTYYADSVKGRFTISRDNAKNTVYLQMNSLKPEDTADYYCAADVTLWYDYWGQGTQVTVSS”: the “polyreactivity (PSR sort gate)” value is on record as “low polyreactivity”.

As for “QVQLVESGGGLVQAGGSLRLSCAASGFIFDNYAMGWYRQAPGKERELVAAISRSGGSTYYADSVKGRFTISRDNAKNTVYLQMNSLKPEDTAVYYCATSGPRGWSLHDYWGQGTQVTVSS”, the “polyreactivity (PSR sort gate)” value is on record as “high polyreactivity”.

Regarding “QVQLVESGGGLVQAGGSLRLSCAASGSIFLKYAMGWYRQAPGKERELVAAISRGGDTNYADSVKGRFTISRDNAKNTVYLQMNSLKPEDTAVYYCAARPGLYFTRRGRYYWGQGTQVTVSS”, the “polyreactivity (PSR sort gate)” value is “high polyreactivity”.

Regarding “QVQLVESGGGLVQAGGSLRLSCAASGSTLKYYAMGWYRQAPGKERELVARITRSSGSTYYADSVKGRFTISRDNAKNTVFLHMNSLKPEDTAVYYCNKVYKSYYCGCYDWGQGTQVTVLS”, the “polyreactivity (PSR sort gate)” value is recorded as “high polyreactivity”.
